Experimental data from patent US9138467.

What was measured:
[1] = target: M. gallisepticum affinity purified antigen; test: lectin affinity chromatography, protein in eluate as percent of load
[2] = target: M. gallisepticum affinity purified antigen; test: lectin affinity chromatography, protein in eluate (about 1.5 mg loaded)

In the case of “Concanavalin A (immobilized Con A column) (from UniProt P02866 30-281)”, the % recovery in Con A elution [1] is reported as 5.7% and the Total protein (mg) eluted from Con A column [2] is reported as 0.088 mg.
